According to publication PMC12234435, “Monoclonal antibody neutralizes Staphylococcus aureus serine protease-like protein B (SplB)-induced pathology” (Infection and Immunity, 2025):

Assays:
[1] = target: T1, recombinant tag-free Staphylococcus aureus serine protease-like protein B (SplB) (Staphylococcus aureus (strain NCTC 8325 …, UniProt Q2FXC3)); assay: cell-based or functional assay
[2] = target: T2, recombinant tag-free Staphylococcus aureus serine protease-like protein A (SplA) (Staphylococcus aureus NCTC 8325 (strain …, UniProt Q2FXC2)); assay: ELISA; indirect ELISA for cross-reactivity with recombinant tag-free SplA, SplD, SplE and SplF; settings: both partners purified
T2 construct: serine protease-like protein A (SplA) of Staphylococcus aureus, tag-free

[3] = target: T3, recombinant tag-free Staphylococcus aureus serine protease-like protein E (SplE) (Staphylococcus aureus (strain NCTC 8325 …, UniProt Q2FXC7)); assay: as above; settings: both partners purified
T3 construct: serine protease-like protein E (SplE) of Staphylococcus aureus, tag-free

[4] = target: T4, recombinant tag-free Staphylococcus aureus serine protease-like protein D (SplD) (Staphylococcus aureus (strain NCTC 8325 …, UniProt Q2FXC5)); assay: as above; settings: both partners purified
T4 construct: serine protease-like protein D (SplD) of Staphylococcus aureus, tag-free

[5] = target: T5, recombinant tag-free Staphylococcus aureus serine protease-like protein F (SplF) (Staphylococcus aureus (strain NCTC 8325 …, UniProt Q2FXC8)); assay: as above; settings: both partners purified
T5 construct: serine protease-like protein F (SplF) of Staphylococcus aureus, tag-free

[6] = target: T6, native SplB in the extracellular proteins of S. aureus D29 (Staphylococcus aureus D29 (USA300 …, UniProt Q2FFT0, strain)); assay: Western blot; 5 µg extracellular proteins of S. aureus NCTC 8325-4 and D29 denatured, SDS-PAGE, blotted on PVDF; α-SplB1 300 ng/mL overnight at 4°C as primary antibody; settings: one partner purified
T6 construct: serine protease-like protein B (SplB), secreted by S. aureus D29, a community-acquired USA300 derivative (CC8); no identifier printed for this strain's SplB; Denatured, separated by SDS-PAGE and blotted; also called SplB in the ECP preparation

[7] = target: T1, recombinant tag-free Staphylococcus …; assay: MST; RED-NHS-labelled tag-free SplB (40 nM) constant, α-SplB1 serially diluted from 3.42 µM to 0.209 nM; MST buffer with 0.05% Tween-20; RT; Monolith NT.115, 100% excitation power, 40% MST power; settings: both partners purified

B1: murine anti-SplB monoclonal antibody α-SplB1 (antibody, V domains shown)
VH: EVQLQESGPGILQSSQTLSLTCSFSGFSLNSVGMGVTWIRQPSGKGLEWLAHIYWDDDKLYNSSLKSRLTISKDTSRNQVFLNITSVVSADTATYYCARRVYGISYDYWYFDVWGTGTAVTVSS
VL: DILMTQSPATLSVTPGDRVSLSCRASQSISDYLHWYQQKSHESPRLLIKYASQSISGIPSRFSGSGSGSDFTLSINSVEPEDVGVYYCQNGHIFPPTFGAGTKLELK
notes: variable region of the heavy chain; mouse IgG1 heavy chain constant region (isotyping: IgG1 subclass); variable region of the light chain; mouse kappa light chain constant region (isotyping: κ light chains); IgG1, kappa; Raised against SplB-Strep; also called α-SplB1 mAb; anti-SplB mAb; source: hybridoma supernatant (C57BL/6N splenocytes fused with P3X63Ag8.653), purified (Protein-G-Sepharose)
neutralisation of the cleavage of the synthetic substrate Ac-VEID-MCA by 2.5 µM tag-free SplB, pre-incubated with α-SplB1 at molar ratios 1:1 to 1:8 (SplB:α-SplB1), 37°C, 1 h [1]: 66 % neutralised (at 1:1 molar ratio; complete at 1:2) | binding result [2]: no binding | binding result [3]: no binding | binding result [4]: no binding | binding result [5]: no binding | binding result [6]: binds | Kd [7]: 37.9 nM
